PMC4323794
Read-outs that look alike come from different tables or passages of the source.

How the values were obtained:
GpIbα‐Fc fusion protein [1] = test: ELISA
[2] = target: ΔD′D3‐VWF lacking the NFP (ΔD′D3NFP‾‐VWF) (human) (UniProt P04275); test: ELISA
[3] = target: Dimeric full‐length VWF (ΔPro‐VWF) (human) (UniProt P04275); test: ELISA
[4] = target: ΔD′D3‐VWF with Ala mutations replacing Thr/Ser (ΔD′D3OG‾‐VWF) (human) (UniProt P04275); test: ELISA
[5] = target: ΔD′D3‐VWF lacking the NFP (ΔD′D3NFP‾‐VWF) (human) (UniProt P04275); test: ELISA; remark: listed apart in the source
GpIbα‐Fc fusion protein [6] = test: SPR

Row | Substance | Kd (GpIbα‐Fc fusion protein [1]) [nM] | Kd (GpIbα‐Fc fusion protein [6]) [nM] | other results
1 | ΔD′D3‐VWF with Ala mutations replacing Thr/Ser (ΔD′D3OG‾‐VWF) (from UniProt P04275 1243-2813) (domain or fragment) | 2.4 | – | –
2 | GpIbα‐Fc fusion protein | – | – | Kd [2]: 7 nM; Kd [3]: 15 nM; Kd [4]: 5 nM; Kd [5]: 7.5 nM
3 | ΔD′D3‐VWF lacking the NFP (ΔD′D3NFP‾‐VWF) (from UniProt P04275 1267-2813) (domain or fragment) | 0.7 | – | –
4 | VWF‐A1 (monomeric A1 domain with the N‐terminal flanking peptide) (from UniProt P04275 1243-1480) (domain or fragment) | – | 1200 | –

The next lines start with results.

Row | Kd (GpIbα‐Fc fusion protein [1]) [nM] | Kd (GpIbα‐Fc fusion protein [6]) [nM] | Substance | other results
5 | 102 | – | Dimeric full‐length VWF (ΔPro‐VWF) (from UniProt P04275 764-2813) (natural protein) | –
6 | – | 1700 | D′D3‐A1 (from UniProt P04275 764-1480) (domain or fragment) | –
